Residue numbers refer to the chain shown, from its start.
T1: GST-ARF2 N-terminus (ARF2-N1-470, DNA-binding domain) (Arabidopsis thaliana, UniProt Q94JM3 1-470)
T1 sequence: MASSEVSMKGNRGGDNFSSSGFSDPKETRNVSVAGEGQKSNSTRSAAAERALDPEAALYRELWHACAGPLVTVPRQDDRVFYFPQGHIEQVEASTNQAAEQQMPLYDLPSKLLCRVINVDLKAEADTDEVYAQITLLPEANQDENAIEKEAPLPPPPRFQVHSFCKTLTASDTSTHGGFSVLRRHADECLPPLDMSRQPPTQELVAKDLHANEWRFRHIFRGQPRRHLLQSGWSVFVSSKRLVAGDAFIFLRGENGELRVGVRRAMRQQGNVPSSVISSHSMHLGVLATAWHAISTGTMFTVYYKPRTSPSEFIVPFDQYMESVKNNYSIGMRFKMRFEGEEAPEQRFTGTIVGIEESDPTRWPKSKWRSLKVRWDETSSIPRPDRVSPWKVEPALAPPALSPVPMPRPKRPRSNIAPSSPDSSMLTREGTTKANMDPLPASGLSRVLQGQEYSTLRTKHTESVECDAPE

B1: HB33 promoter probe (dsDNA)
DNA 1: CCAAATTGTCTCTTATAATCCGATCTCAAAGGTTGGCTTGTTGGGAGCACTGAGACATCAAAC
DNA 2: GTTTGATGTCTCAGTGCTCCCAACAAGCCAACCTTTGAGATCGGATTATAAGAGACAATTTGG
B2: HB33 promoter mProbe (mP) (dsDNA)
DNA 1: B1 DNA 1 with T9A, T11A, A53T, A55T
DNA 2: B1 DNA 2 with T9A, T11A, A53T, A55T

Target: T1, GST-ARF2 N-terminus (ARF2-N1-470, …)
Assay: EMSA; poly(dI-dC); EMSA: 5x buffer 50 mM HEPES-KOH pH 7.5, 375 mM KCl, 6.25 mM MgCl (so in the source), 1 mM DTT, 0.5 ug/mL BSA, 25% glycerol; 25 fmol probe, 6 ug protein, 1 ug poly(dI-dC) in 20 ul, room temperature 20 min; 6.5% native PAGE in TGE pH 8.3
Conditions: protein: recombinant; tags: GST; chain copies: 2; blunt

| Binder | binding result |
| --- | --- |
| B1 | binds |
| B2 | no binding |

Reference: publication PMC3136439, “Auxin Response Factor2 (ARF2) and Its Regulated Homeodomain Gene HB33 Mediate Abscisic Acid Response in Arabidopsis”
